Measured values from patent US20240150476A1 (Chugai, published 2024).
One block for each binder: values may come before it.

Experiments:
[1] = molecular target: T1, human CD3ed-Fc (human); experiment: phage display: panning on biotin-labeled human CD3ed-Fc and/or phage ELISA
T1 construct: Biotinylated in culture with BirA; The heterodimer fraction was purified; also called biotin-labeled protein containing human CD3 epsilon and human CD3 delta linked to a human antibody constant region; CD3 epsilon-delta heterodimer fused with the antibody constant region
T1 chain 1: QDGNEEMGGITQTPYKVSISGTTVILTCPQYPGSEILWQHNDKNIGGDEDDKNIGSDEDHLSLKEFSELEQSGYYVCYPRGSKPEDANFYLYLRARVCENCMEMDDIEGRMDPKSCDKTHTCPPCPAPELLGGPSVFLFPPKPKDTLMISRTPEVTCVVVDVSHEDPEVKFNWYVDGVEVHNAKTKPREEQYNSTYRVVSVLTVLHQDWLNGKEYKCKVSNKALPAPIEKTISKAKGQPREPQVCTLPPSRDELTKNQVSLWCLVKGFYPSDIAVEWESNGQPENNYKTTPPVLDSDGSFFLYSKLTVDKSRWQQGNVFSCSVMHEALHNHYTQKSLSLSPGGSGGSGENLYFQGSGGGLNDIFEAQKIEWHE
T1 chain 2: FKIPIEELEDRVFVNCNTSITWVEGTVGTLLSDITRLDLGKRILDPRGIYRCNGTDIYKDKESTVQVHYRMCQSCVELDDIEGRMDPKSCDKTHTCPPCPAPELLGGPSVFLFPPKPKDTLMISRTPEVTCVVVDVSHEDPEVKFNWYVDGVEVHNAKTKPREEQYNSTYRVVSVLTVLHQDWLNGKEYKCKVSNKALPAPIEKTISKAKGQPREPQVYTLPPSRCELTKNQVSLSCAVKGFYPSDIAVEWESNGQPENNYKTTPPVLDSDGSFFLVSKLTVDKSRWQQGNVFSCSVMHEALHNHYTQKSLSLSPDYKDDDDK
Method: Next, BSA was added to the phage library solution so as to attain a final BSA concentration of 4%. […] The magnetic beads used were NeutrAvidin coated beads (FG beads NeutrAvidin) or Streptavidin coated beads (Dynabeads MyOne Streptavidin T1).
Specifically, 100 pmol of the biotin-labeled antigen was added to the prepared phage library solution, and the phage library solution was contacted with the antigen at room temperature for 60 minutes. The magnetic beads blocked with BSA were added thereto, and the complexes of the antigen and the phages were bound to the magnetic beads at room temperature for 15 minutes. The beads were washed twice with 0.5 mL of TBST (TBS containing 0.1% Tween 20; TBS was manufactured by Takara Bio Inc.) and then further washed once with 0.5 mL of TBS. Then, 0.5 mL of 1 mg/mL trypsin was added thereto, and the beads were suspended at room temperature for 15 minutes and immediately thereafter, separated using a magnetic stand to recover a phage solution. The recovered phage solution was added to 20 mL of an E. coli line ER2738 in an exponential stage of growth (OD600: 0.4-0.5). The E. coli was cultured with mild stirring at 37° C. for 1 hour and thereby infected by the phages. […] Next, the phages were recovered from the culture solution of the inoculated E. coli to prepare a phage library solution. This cycle, called panning, was repeated twice. In the second cycle of panning, the beads were washed three times with TBST and subsequently twice with TBS. Also, 4 nmol of human Fc was added in the case of the panning against the human CD3ed-Fc.

[2] = molecular target: T2, 20A11-G1m/VK2-28-k0MT; experiment: BLI (Octet), in the same way as in Example 3
T2 construct: IgG antibody-like molecule
T2 sequence (heavy, as listed by the source, chain 1 of 2): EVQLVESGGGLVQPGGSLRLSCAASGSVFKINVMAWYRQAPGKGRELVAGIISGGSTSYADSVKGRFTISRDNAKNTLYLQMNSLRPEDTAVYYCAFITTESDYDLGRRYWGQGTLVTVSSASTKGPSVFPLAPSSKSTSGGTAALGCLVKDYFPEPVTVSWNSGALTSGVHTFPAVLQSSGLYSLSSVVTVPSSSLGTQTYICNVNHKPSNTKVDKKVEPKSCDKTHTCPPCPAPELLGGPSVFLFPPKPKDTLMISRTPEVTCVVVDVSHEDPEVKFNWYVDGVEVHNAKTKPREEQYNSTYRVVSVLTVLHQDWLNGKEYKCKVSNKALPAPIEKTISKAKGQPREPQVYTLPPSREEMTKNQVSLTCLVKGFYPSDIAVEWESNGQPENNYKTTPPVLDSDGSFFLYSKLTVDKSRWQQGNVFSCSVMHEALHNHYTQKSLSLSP
T2 sequence (light, as listed by the source, chain 2 of 2): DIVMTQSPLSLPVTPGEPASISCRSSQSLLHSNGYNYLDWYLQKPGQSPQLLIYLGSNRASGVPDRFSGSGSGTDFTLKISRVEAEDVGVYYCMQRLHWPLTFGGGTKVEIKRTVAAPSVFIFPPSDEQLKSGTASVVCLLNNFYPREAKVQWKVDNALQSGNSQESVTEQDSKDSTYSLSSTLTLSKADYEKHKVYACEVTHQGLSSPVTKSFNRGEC

[3] = molecular target: T3, 20A11hu-G1m/VK2-28-k0MT (Homo sapiens (Human), UniProt P0DOX5 2-447 = IgG part); experiment: BLI (Octet), in the same way as in Example 3, 30 C or 25 C
T3 construct: IgG antibody-like molecule
T3 sequence (P0DOX5 other isoform, or with tags, fused parts or gaps, chain 1 of 2): as the sequence (heavy, as listed by the source, chain 1 of 2) above, with Y37V, R45L, L47W counted along it
T3 sequence (light, as listed by the source, chain 2 of 2): as the sequence (light, as listed by the source, chain 2 of 2) above

[4] = molecular target: T4, IL6R90-G1m/lamL (Homo sapiens (Human), UniProt P0DOY2 1-106); experiment: BLI (Octet HTX), molecule captured on Protein A biosensor, hsIL-6R as analyte, 30 C
T4 construct: IgG antibody-like molecule lacking VL
Method: (§1) The hsIL-6R binding evaluation of each molecule was conducted using Octet HTX (Pall ForteBio Corp.). Specifically, each molecule was bound to Biosensor/Protein A (ProA) (Pall ForteBio Corp., 18-5013), and hsIL-6R was allowed to act thereon, followed by binding evaluation at 30° C.

[5] = molecular target: T5, IL6R90-G1m/VK2-28-k0MT; experiment: as above
T5 construct: IgG antibody-like molecule
T5 sequence (light, as listed by the source, chain 2 of 2, other chains not shown): as the sequence (light, as listed by the source, chain 2 of 2) above
Method: as §1

[6] = molecular target: T4, IL6R90-G1m/lamL; experiment: BLI (Octet HTX), hsIL-6R-BAP1 on streptavidin sensor, molecule as analyte, 30 C

- binding result [1]: binds
B1: bC3edL1R1N164H01 (VHH)
VHH: QVQLVESGGGLVQPGGSLRLSCAASGFTFDVYGMSWVRHSPGKGLEWVSTINWNGGSTYYAESMKGRFTISRDNAKNTVYLQMNSLKPEDTAVYYCAKFAPWDGDMEWGQGTQVTVSG

- binding result [2]: binds
- binding result [3]: no binding
- binding result [4]: binds
- binding result [5]: no binding
B2: soluble human IL-6R (receptor)
chain: LAPRRCPAQEVARGVLTSLPGDSVTLTCPGVEPEDNATVHWVLRKPAAGSHPSRWAGMGRRLLLRSVQLHDSGNYSCYRAGRPAGTVHLLVDVPPEEPQLSCFRKSPLSNVVCEWGPRSTPSLTTKAVLLVRKFQNSPAEDFQEPCQYSQESQKFSCQLAVPEGDSSFYIVSMCVASSVGSKFSKTQTFQGCGILQPDPPANITVTAVARNPRWLSVTWQDPHSWNSSFYRLRFELRYRAERSKTFTTWMVKDLQHHCVIHDAWSGLRHVVQLRAQEEFGQGEWSEWSPEAMGTPWTESRSPPAENEVSTPMQALTTNKDDDNILFRDSANATSLPVQ
notes: Expressed in CHO cells and purified from the supernatant; also called hsIL-6R; recombinant human IL6R

- binding result [1]: binds
B3: bC3edL1R1N161H01 (VHH)
VHH: QVQLVESGGGLVQPGGSLRLSCAASGFPFDNYVMSWVRQAPGKGLEWISAISWNGGSTYYAESMKGRFTISRDNAKSTLYLQMNSLKSEDTAVYYCAKEPRVYYSGSPDYWGQGTQVTVSG

- binding result [1]: binds
B4: bC3edL1R1N160H01 (VHH)
VHH: QVQLVESGGGLVQPGGSLRLSCAASGFTFNHCWMYWVRQAPGKGLEWVSVINTDGGSAYYADSVKGRFTISRDNAKNTLYLQMNSLKSEDTAVYYCARDWAPLVDYYYGMDYWGKGTLVTVSG

- binding result [6]: binds
B5: hsIL-6R-BAP1 (receptor)
chain: LAPRRCPAQEVARGVLTSLPGDSVTLTCPGVEPEDNATVHWVLRKPAAGSHPSRWAGMGRRLLLRSVQLHDSGNYSCYRAGRPAGTVHLLVDVPPEEPQLSCFRKSPLSNVVCEWGPRSTPSLTTKAVLLVRKFQNSPAEDFQEPCQYSQESQKFSCQLAVPEGDSSFYIVSMCVASSVGSKFSKTQTFQGCGILQPDPPANITVTAVARNPRWLSVTWQDPHSWNSSFYRLRFELRYRAERSKTFTTWMVKDLQHHCVIHDAWSGLRHVVQLRAQEEFGQGEWSEWSPEAMGTPWTESRSPPAENEVSTPMQALTTNKDDDNILFRDSANATSLPVQGGGGSGLNDIFEAQKIEWHE
modifications: biotin on the C-terminal AviTag sequence (BirA)
notes: also called hsIL-6R-Avitag; biotinylated soluble human IL6R
